In assay [1] the target is human ROR1 on cells (full-length human ROR1 on huROR1-HEK293 cells; human ROR1 on A549 and HT-29 tumor cells) (human) (UniProt Q01973). Nature of the assay: flow cytometry (FACS) on A549 tumor cells, anti-human IgG-Fc secondary antibody, MFI.
Assay [2] has the same target. The assay can be described thus: flow cytometry (FACS) on huROR1-HEK293 cells, anti-human IgG-Fc secondary antibody, MFI.
For assay [3] the target is unchanged. The assay can be described thus: flow cytometry (FACS) on HT29 (HT-29) tumor cells, anti-human IgG-Fc secondary antibody, MFI.
Assay [4] has as its target huROR1-His (human ROR1 ECD AA30-406 with C-terminal His tag, made in house) (human) (UniProt Q01973). Nature of the assay: Biacore T200 SPR; huROR1-His amine-coupled (~75 RU), antibody 4 and 20 nM as analyte, 1:1 Langmuir fit.
Assay [5] has the same target. The assay can be described thus: ELISA, huROR1-His coated plate, goat anti-human Fc-HRP, OD450.
Assay [6] shares this target. Nature of the assay: Gator (BLI) Advanced Kinetics; antibody 30 nM, huROR1-His 480-7.5 nM.
Assay [7] shares this target. Nature of the assay: ELISA, huROR1-His coated plate, goat anti-human Fc-HRP, OD450. This is another data set of the same source.
Assay [8] deals with human ROR1 on cells (full-length human ROR1 on huROR1-HEK293 cells; human ROR1 on A549 and HT-29 tumor cells) (human) (UniProt Q01973). Nature of the assay: flow cytometry (FACS) on A549 tumor cells, anti-human IgG-Fc secondary antibody, MFI. The source holds these as a separate data set.
Assay [9] has the same target. The assay can be described thus: flow cytometry (FACS) on huROR1-HEK293 cells, anti-human IgG-Fc secondary antibody, MFI. The source holds these as a separate data set.
The target in assay [10] is huROR1-His (human ROR1 ECD AA30-406 with C-terminal His tag, made in house) (human) (UniProt Q01973). The assay can be described thus: ELISA, huROR1-His coated plate, goat anti-human Fc-HRP, OD450. This is another data set of the same source.
Assay [11] shares this target. Nature of the assay: ELISA, huROR1-His coated at 2 µg/mL, goat anti-human Fc-HRP, OD450.
Assay [12] shares this target. Nature of the assay: ELISA, huROR1-His coated plate, goat anti-human Fc-HRP, OD450. This is another data set of the same source.
Assay [13] shares this target. The assay is described as above. The source holds these as a separate data set.
For assay [14] the target is unchanged. The assay can be described thus: ELISA, huROR1-His coated at 2 µg/mL, goat anti-human Fc-HRP, OD450. This is another data set of the same source.

huROR1-His (human ROR1 ECD AA30-406 with C-terminal His tag, made in house) (human), sequence (Q01973 30-406 limits assumed): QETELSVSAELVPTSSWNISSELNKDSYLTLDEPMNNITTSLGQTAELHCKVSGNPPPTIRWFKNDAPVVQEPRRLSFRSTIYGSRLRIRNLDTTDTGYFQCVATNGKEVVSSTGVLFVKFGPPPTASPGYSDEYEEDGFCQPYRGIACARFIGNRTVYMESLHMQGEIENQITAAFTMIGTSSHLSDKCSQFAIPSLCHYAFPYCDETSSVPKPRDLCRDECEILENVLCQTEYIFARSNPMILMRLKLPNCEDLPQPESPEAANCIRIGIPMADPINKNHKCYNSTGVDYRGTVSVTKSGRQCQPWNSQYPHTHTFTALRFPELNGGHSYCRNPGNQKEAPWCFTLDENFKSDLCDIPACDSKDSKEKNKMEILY
human ROR1 on cells (full-length human ROR1 on huROR1-HEK293 cells; human ROR1 on A549 and HT-29 tumor cells) (human), sequence (Q01973 30-937): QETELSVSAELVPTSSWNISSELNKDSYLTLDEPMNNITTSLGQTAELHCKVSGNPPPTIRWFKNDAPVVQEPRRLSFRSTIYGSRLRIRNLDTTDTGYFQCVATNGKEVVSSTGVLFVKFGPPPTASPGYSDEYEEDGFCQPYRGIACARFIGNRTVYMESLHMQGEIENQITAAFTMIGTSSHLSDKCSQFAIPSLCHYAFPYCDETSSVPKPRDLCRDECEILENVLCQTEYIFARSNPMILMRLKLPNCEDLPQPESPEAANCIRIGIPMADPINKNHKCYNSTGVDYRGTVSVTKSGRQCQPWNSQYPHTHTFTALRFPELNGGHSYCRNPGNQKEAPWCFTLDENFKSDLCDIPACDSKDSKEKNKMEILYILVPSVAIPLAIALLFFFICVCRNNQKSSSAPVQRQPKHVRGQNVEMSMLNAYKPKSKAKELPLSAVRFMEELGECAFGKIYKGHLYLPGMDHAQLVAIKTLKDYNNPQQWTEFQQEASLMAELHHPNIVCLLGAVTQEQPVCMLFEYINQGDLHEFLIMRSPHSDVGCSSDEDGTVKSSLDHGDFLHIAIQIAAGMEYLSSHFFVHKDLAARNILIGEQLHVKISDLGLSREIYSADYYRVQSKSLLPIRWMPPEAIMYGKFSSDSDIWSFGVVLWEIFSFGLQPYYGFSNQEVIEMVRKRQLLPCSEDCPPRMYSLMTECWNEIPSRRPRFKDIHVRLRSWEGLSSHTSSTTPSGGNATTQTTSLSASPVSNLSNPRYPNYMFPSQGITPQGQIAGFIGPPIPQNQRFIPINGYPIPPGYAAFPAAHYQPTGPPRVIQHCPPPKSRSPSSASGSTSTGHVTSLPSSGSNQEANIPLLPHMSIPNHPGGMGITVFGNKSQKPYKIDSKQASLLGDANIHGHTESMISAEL

With “Cirmtuzumab (positive control anti-ROR1 antibody, clone number 99961.1)”, the EC50 (read off the curve) came to 3 ng/mL in assay [1]; 50 ng/mL in [2]; 20 ng/mL in [3]; 10 ng/mL in assay [8]; 60 ng/mL in assay [9]. Also, the results for the Kd in assay [4] and in assay [6] were 1.98 nM and 13.5 nM, respectively. In addition, the koff in assay [4] was determined as 0.00137 s⁻¹; in assay [6], 0.00712 s⁻¹. The on-rate (kon) amounted to 694000 M⁻¹ s⁻¹ in assay [4] and 529000 M⁻¹ s⁻¹ in assay [6]. This substance also displayed a t 1/2 in assay [4] of 8.41 min. The EC50 in assay [5] was 3 ng/mL; in assay [7], 3.3 ng/mL; in assay [10], 3.24 ng/mL; in [11] it was 5.12 ng/mL; in [12], 2.56 ng/mL; in assay [13], 3 ng/mL. The EC50 in assay [14] came to 5.78 ng/mL.

Source of the values: US20250177546A1, “ROR1-TARGETED BINDING MOLECULE AND USE THEREOF” (SANYOU BIOPHARMACEUTICALS CO., LTD., priority 2022, published 2025).
